Laboratory results reported in paper PMC8847575, “HSL1 and BAM1/2 impact epidermal cell development by sensing distinct signaling peptides” (Nature Communications, 2022).
Square brackets hold non-standard residues; d marks the D form. Ends that are not written are not given here. Hyp = O=C(O)[C@@H]1C[C@@H](O)CN1

Columns and labels:
[1] = molecular target: T1, SERK1 (SOMATIC EMBRYOGENESIS RECEPTOR KINASE 1) ectodomain (Arabidopsis, UniProt Q94AG2 24-213); assay: crystal structure; HSL1-CLE9-SERK1, mixed 1:1:1.5; 0.2 M K/Na tartrate, 20% PEG 3350; 2.87 Å; settings: both partners purified
T1 construct: SERK1 ectodomain, Arabidopsis, residues 24-213, AT1G71830; codon optimised; secreted with an azurocidin or Drosophila BiP signal peptide; also called co-receptor SERK1; source: Trichoplusia ni Tnao38 cells (baculovirus), secreted, purified (Ni2+, Strep-Tactin, TEV cleavage, second Ni2+, SEC)
T1 sequence (looked up): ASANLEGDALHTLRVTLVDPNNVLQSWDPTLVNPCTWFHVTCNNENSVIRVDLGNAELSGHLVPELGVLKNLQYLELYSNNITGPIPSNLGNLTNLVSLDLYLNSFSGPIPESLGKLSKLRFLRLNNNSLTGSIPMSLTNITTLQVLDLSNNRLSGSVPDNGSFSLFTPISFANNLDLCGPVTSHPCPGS

[2] = molecular target: T2, BAM1 (BARELY ANY MERISTEM 1) ectodomain (Arabidopsis, UniProt O49545 20-637); assay: ITC; peptide (75 to 600 µM) injected into 10 to 30 µM HSL1 or BAM1 ectodomain in the cell; 25 °C; 20 mM sodium citrate pH 5.0, 150 mM NaCl; N fitted to 1; settings: both partners purified
T2 construct: BAM1 LRR receptor kinase ectodomain, Arabidopsis, residues 20-637, AT5G65700; codon optimised; secreted with an azurocidin or Drosophila BiP signal peptide; also called BAM1 extracellular domain; BAM1 LRR ectodomain; source: Trichoplusia ni Tnao38 cells (baculovirus), secreted, purified (Ni2+, Strep-Tactin, TEV cleavage, second Ni2+, SEC)
T2 sequence (looked up): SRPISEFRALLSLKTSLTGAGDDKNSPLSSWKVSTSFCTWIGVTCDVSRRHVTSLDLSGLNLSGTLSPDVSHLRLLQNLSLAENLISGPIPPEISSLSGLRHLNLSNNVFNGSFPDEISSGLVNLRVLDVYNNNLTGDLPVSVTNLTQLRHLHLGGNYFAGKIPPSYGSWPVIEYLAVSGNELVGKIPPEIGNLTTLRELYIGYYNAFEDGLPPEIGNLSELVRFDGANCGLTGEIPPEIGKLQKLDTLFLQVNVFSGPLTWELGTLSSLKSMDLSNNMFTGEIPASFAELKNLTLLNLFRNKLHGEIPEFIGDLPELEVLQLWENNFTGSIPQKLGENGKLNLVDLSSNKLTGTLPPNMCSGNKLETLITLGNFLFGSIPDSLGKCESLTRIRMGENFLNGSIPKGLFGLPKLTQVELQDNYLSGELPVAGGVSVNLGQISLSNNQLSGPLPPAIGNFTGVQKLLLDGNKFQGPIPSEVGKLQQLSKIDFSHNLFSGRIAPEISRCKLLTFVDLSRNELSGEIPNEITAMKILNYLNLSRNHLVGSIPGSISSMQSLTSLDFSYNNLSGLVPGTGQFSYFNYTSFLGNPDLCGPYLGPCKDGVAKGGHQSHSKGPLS

[3] = molecular target: T3, HSL1 (HAESA-LIKE 1) ectodomain (Arabidopsis, UniProt Q9SGP2 17-618); assay: as above; settings: both partners purified
T3 construct: HSL1 LRR receptor kinase ectodomain, Arabidopsis, residues 17-618, AT1G28440; codon optimised; secreted with an azurocidin or Drosophila BiP signal peptide; also called isolated HSL1 ectodomain; LRR-RK HSL1; source: Trichoplusia ni Tnao38 cells (baculovirus), secreted, purified (Ni2+, Strep-Tactin, TEV cleavage, second Ni2+, SEC)
T3 sequence (looked up): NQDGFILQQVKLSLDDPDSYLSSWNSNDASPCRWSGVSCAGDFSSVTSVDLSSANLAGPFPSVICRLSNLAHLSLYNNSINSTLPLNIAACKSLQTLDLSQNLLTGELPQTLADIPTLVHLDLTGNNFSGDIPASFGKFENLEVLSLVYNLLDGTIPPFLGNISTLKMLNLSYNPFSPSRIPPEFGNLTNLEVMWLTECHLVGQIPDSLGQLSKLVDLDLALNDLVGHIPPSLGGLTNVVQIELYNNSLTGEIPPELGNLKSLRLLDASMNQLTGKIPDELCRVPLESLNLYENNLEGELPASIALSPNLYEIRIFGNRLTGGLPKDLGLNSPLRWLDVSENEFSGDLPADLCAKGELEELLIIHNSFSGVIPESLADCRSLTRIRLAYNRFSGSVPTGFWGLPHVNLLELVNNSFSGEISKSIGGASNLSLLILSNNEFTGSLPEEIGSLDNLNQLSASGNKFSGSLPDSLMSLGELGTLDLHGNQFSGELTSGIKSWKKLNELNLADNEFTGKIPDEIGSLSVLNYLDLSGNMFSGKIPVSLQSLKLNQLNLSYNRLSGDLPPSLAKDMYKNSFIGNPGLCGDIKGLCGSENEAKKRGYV

[4] = molecular target: T4, HSL1 (HAESA-LIKE 1) ectodomain (Arabidopsis, UniProt Q9SGP2 17-618); assay: ITC
T4 chain: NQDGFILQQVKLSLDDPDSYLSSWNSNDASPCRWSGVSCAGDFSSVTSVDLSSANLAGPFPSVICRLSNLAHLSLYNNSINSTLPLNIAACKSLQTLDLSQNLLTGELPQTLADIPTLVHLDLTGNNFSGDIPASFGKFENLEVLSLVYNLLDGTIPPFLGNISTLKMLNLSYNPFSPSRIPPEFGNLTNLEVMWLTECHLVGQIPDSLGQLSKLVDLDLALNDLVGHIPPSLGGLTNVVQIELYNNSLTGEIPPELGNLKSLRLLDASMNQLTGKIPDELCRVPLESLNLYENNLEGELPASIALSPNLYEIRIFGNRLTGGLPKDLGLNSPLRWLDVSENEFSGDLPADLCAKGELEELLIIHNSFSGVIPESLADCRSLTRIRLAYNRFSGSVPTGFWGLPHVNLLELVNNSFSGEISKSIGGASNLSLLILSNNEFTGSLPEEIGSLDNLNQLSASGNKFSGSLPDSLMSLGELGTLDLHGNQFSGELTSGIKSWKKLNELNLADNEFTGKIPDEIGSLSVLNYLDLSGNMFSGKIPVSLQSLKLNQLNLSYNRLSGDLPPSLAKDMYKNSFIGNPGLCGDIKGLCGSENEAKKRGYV

[5] = molecular target: T4, HSL1 (HAESA-LIKE 1) ectodomain; assay: ITC; with CLE9^N116S
[6] = molecular target: T5, biotinylated HSL1 ectodomain with Avi-tag (Arabidopsis, UniProt Q9SGP2 17-618, biotin on the Avi-tag (BirA)); assay: GCI, with IDL3
T5 chain: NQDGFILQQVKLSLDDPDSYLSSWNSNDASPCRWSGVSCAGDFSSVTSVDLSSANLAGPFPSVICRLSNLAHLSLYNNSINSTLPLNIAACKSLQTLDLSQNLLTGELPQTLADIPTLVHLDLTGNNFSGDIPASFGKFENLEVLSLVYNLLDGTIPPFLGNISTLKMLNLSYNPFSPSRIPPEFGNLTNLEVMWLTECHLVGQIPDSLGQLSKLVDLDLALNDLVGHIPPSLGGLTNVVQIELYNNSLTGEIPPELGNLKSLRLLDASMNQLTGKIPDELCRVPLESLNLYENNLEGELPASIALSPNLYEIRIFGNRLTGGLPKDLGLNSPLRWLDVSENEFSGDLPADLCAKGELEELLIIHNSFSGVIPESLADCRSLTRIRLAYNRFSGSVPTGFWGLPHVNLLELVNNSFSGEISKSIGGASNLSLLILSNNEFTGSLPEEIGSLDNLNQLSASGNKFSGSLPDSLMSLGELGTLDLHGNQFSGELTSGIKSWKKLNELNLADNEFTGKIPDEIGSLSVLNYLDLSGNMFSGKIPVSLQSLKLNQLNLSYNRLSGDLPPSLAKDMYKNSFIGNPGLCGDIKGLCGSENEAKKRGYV

[7] = molecular target: T5, biotinylated HSL1 ectodomain with …; assay: GCI, with IDL1
[8] = molecular target: T5, biotinylated HSL1 ectodomain with …; assay: GCI, with IDL2
[9] = molecular target: T5, biotinylated HSL1 ectodomain with …; assay: GCI, with IDL1
[10] = molecular target: T5, biotinylated HSL1 ectodomain with …; assay: in presence of IDL2
[11] = molecular target: T4, HSL1 (HAESA-LIKE 1) ectodomain; assay: ITC; with IDL4
[12] = molecular target: T4, HSL1 (HAESA-LIKE 1) ectodomain; assay: ITC; with IDL2
[13] = molecular target: T5, biotinylated HSL1 ectodomain with …; assay: in presence of IDL1
[14] = molecular target: T5, biotinylated HSL1 ectodomain with …; assay: in presence of IDL1
[15] = molecular target: T5, biotinylated HSL1 ectodomain with …; assay: in presence of IDL3
[16] = molecular target: T5, biotinylated HSL1 ectodomain with …; assay: GCI, with IDL3
[17] = molecular target: T5, biotinylated HSL1 ectodomain with …; assay: GCI, with IDA
[18] = molecular target: T4, HSL1 (HAESA-LIKE 1) ectodomain; assay: ITC; with IDA
[19] = molecular target: T4, HSL1 (HAESA-LIKE 1) ectodomain; assay: ITC; with IDL3
[20] = molecular target: T5, biotinylated HSL1 ectodomain with …; assay: in presence of IDL4
[21] = molecular target: T5, biotinylated HSL1 ectodomain with …; assay: in presence of IDL2
[22] = molecular target: T5, biotinylated HSL1 ectodomain with …; assay: GCI, with IDL4
[23] = molecular target: T4, HSL1 (HAESA-LIKE 1) ectodomain; assay: ITC; with IDL1
[24] = molecular target: T5, biotinylated HSL1 ectodomain with …; assay: in presence of IDL4
[25] = molecular target: T5, biotinylated HSL1 ectodomain with …; assay: in presence of IDL3

B1: CLE9 mature peptide (peptide, UniProt Q9FZE4 109-120, looked up)
peptide: RLV[Hyp]SG[Hyp]NPLHN
notes: CLE9 mature dodecapeptide, AT1G26600; printed residues R109, L110, V111, Hyp112, Ser113, Hyp115, Asn116; also called wild-type CLE9 peptide
[1]
  binding result: binds
[2]
  Kd: 100 nM

B2: CLE9^N116S peptide (peptide, UniProt Q9FZE4 109-120, looked up)
peptide: RLVPSGPSPLHN
notes: CLE9 mature dodecapeptide with Asn116 changed to Ser; also called Asn116^CLE9 to a Ser
[3]
  binding result: binds
[4]
  Kd: 7150 nM

B3: SERK1 (SOMATIC EMBRYOGENESIS RECEPTOR KINASE 1) ectodomain (domain or fragment)
chain: ASANLEGDALHTLRVTLVDPNNVLQSWDPTLVNPCTWFHVTCNNENSVIRVDLGNAELSGHLVPELGVLKNLQYLELYSNNITGPIPSNLGNLTNLVSLDLYLNSFSGPIPESLGKLSKLRFLRLNNNSLTGSIPMSLTNITTLQVLDLSNNRLSGSVPDNGSFSLFTPISFANNLDLCGPVTSHPCPGS
[5]
  Kd: 170 nM
[6]
  koff: 3e-05 s⁻¹
[7]
  koff: 0.00018 s⁻¹
[8]
  Kd: 9 nM
[9]
  Kd: 12.5 nM
[10]
  koff: 0.00011 s⁻¹
[11]
  Kd: 49 nM
[12]
  Kd: 16 nM
[13]
  Kd: 12.5 nM
[14]
  koff: 0.00018 s⁻¹
[15]
  koff: 0.00026 s⁻¹
[16]
  Kd: 1 nM
[17]
  Kd: 9 nM
[18]
  Kd: 22 nM
[19]
  Kd: 26 nM
[20]
  Kd: 10.7 nM
[21]
  Kd: 1.5 nM
[22]
  Kd: 12.5 nM
[23]
  Kd: 44 nM
[24]
  koff: 0.00013 s⁻¹
[25]
  Kd: 8.5 nM
